# Source: the supplement of paper PMC10126150
# ± gives the standard deviation of the averaged measurements.
# System: ATP
# Assay: switch fluorescence ratio, 500 uM ATP over buffer (Cy3 cluster intensity, sum of 5 cycles each) (fold (ratio)); higher = stronger signal-on switching upon ATP binding; sequences stand for … in TCGTCGGCAGCGTCAGATGTGTATAAGAGACAGTTTTTTTTTTTTTTTTTTTTTTTTT…TC
# Settings: aptamer strand: ATP DNA aptamer (quencher-CACCTGGGGGAGTATTGCGGAGGAAGG + anchor), 100 nM annealed; ATP concentration: 500 uM
# How it was run: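 Exposure to 500 uM ATP lasted 15 min at 22 °C before imaging, and a selection-buffer image was taken beforehand, for Cy3-labelled switching-strand clusters on a modified Illumina MiSeq flow-cell annealed to 100 nM quencher-labelled ATP aptamer. Five buffer/ATP cycles were run with NaOH stripping and re-annealing between them. The fluorescence ratio per cluster is summed target-cycle over summed buffer-cycle Cy3 intensity, averaged per switch-domain sequence. Clusters outside 100-1000 RFU were excluded.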
row,Sequence,switch fluorescence ratio
1,CGGCTCGTTT,1.049 ± 0.0079
2,TCGTATTACA,1.011 ± 0.0035
3,AGGGATGTAA,0.992 ± 0.012
4,GAAATTGGGA,1.08 ± 0.12
5,TTGTGTGTAG,1.04 ± 0.033
6,GTCCAGGGGA,1.04 ± 0.1
7,TTCAGGTGGC,1.18 ± 0.17
8,GTAGTTAGGG,1.02 ± 0.015
9,GGATTAGGGA,1.01 ± 0.03
10,TTTTGCACTT,1.022 ± 0.0012
11,TAGTCATTCA,0.981 ± 0.026
12,TTGGGGTAGC,1.01 ± 0.036
13,ACAGGGGGGG,1.07 ± 0.19
14,CTGGGAACGG,0.965 ± 0.052
15,AAGATGAGCT,1.004 ± 0.0043
16,GTTGGATATT,0.9976 ± 0.0064
17,CAGTTATAAT,1.04 ± 0.016
18,GGGGGTGCCT,0.986 ± 0.064
19,TGAGTCCTCG,0.995 ± 0.064
20,GGGGTTGTGT,0.996 ± 0.026
21,AGGTTGCGCG,1.009 ± 0.0079
22,GGATACGTTG,1.02 ± 0.052
23,GAGAGATGGG,0.988 ± 0.018

row,Sequence,switch fluorescence ratio
1,TTGGGGAAGA,1.02 ± 0.029
2,ACTTTGGCGG,0.981 ± 0.044
3,TGCATTTTGT,0.989 ± 0.018
4,TTCCATTCGA,0.992 ± 0.044
5,TCATTGTTTT,1.01 ± 0.019
6,AAATAGAGTT,0.998 ± 0.013
7,ATAAGTTGGG,0.968 ± 0.024
8,GAGTGTCGGC,0.9963 ± 0.0052
9,ATTCCGGCGG,0.976 ± 0.015
10,GTTGGAAAGT,0.99 ± 0.022
11,GGGTAACGGA,1.03 ± 0.04
12,GCTTTCACGA,0.9879 ± 0.0036
13,TTGGACGCCG,1.07 ± 0.041
14,TTATTGGGCA,1.04 ± 0.021
15,CAAGTCAGTA,0.991 ± 0.025
16,TTTTCGTGTT,1 ± 0.032
17,AGGGAGGCCG,0.98 ± 0.11
18,CTACTTGATA,0.978 ± 0.017
19,CCGGGTGACC,1.143 ± 0.0068
20,GTTTTACGGA,1.003 ± 0.0065
21,CTCGAAGCG,1.04 ± 0.034
22,CCTCTGGTTT,2.84 ± 0.37
23,CCAAACGAGT,0.9661 ± 0.0041

row,Sequence,switch fluorescence ratio
1,GTAGCTATAT,4.08 ± 0.14
2,TATAGAGGGA,0.988 ± 0.02
3,TATACTATGG,1.01 ± 0.038
4,TGAAAGTGGA,1.05 ± 0.034
5,CGGTGTGCGG,0.995 ± 0.037
6,AAGATGGTGG,1.004 ± 0.0057
7,TGTAAGTATT,1.02 ± 0.018
8,CCGGGAGTGT,1.12 ± 0.013
9,GATGAAGATT,1.011 ± 0.005
10,GATCGGGAAC,1.06 ± 0.031
11,TCCGGGGGGG,1.06 ± 0.094
12,AGGGCTTTTG,1 ± 0.063
13,TTGTTTAGCC,0.989 ± 0.032
14,TCAGTAATGA,1.0075 ± 7.1e-05
15,ATGGTTCAAT,0.987 ± 0.029
16,ACTTGAGGGG,1.03 ± 0.043
17,TTTTTTATCA,0.98 ± 0.029
18,TATATTGCAT,1.01 ± 0.015
19,CCTGGAGCTC,1.35 ± 0.02
20,CTAGTTTGGA,1 ± 0.011
21,CAGTTTGAGT,1.006 ± 0.0014
22,ATTGTTACGT,0.998 ± 0.012
23,AAATGAATGG,1.0177 ± 0.00097

row,Sequence,switch fluorescence ratio
1,TTATAAATAC,1.91 ± 0.7
2,AGGGAGTTCG,0.977 ± 0.03
3,CCGATGTATA,1.35 ± 0.053
4,CAAGTCTATT,1.01 ± 0.04
5,TTAAAAGTAG,1 ± 0.058
6,TTCTATATTG,0.996 ± 0.023
7,ATAAACCGGG,1.02 ± 0.043
8,TTCTCTTTTT,1.02 ± 0.036
9,GCGTTTTATT,0.976 ± 0.017
10,TGGGCCAGTT,0.981 ± 0.035
11,ACTCGAAGGG,1.02 ± 0.042
12,TGTAGAAAGG,1.03 ± 0.046
13,AGTTTGGGAA,1 ± 0.018
14,GAGGGGAAGC,0.985 ± 0.046
15,AAGGGACGTG,0.984 ± 0.019
16,GGGGATTATG,0.997 ± 0.046
17,ATCCTTTAAC,1 ± 0.032
18,GTTATGGTTT,0.986 ± 0.031
19,ACTGATGGTA,1.02 ± 0.025
20,TCGGGGCTGT,0.993 ± 0.026
21,GGAGGAGCTG,0.95 ± 0.042
22,CCTTCGAGG,1.15 ± 0.2
23,TAATTTAGAT,1.028 ± 0.0095

row,Sequence,switch fluorescence ratio
1,AGCAGGCGAA,1.009 ± 0.0035
2,AGGGCATTGA,1.01 ± 0.022
3,CTTGTGTGTT,0.993 ± 0.057
4,TAAGCAGAGG,1.17 ± 0.13
5,GATGGACAGC,1.04 ± 0.041
6,GATAAAGAAG,0.9999 ± 0.0071
7,TATTGTGGTT,1 ± 0.031
8,CGGTTTCTCG,0.982 ± 0.02
9,TCAGGGTTGT,1.02 ± 0.031
10,TTCGTGGTGA,1.02 ± 0.019
11,GAGGTGGGCT,1 ± 0.067
12,CAGAGAGCGG,0.9815 ± 0.0031
13,TCATCCGTTT,1.13 ± 0.15
14,TTGTAGTTG,0.9952 ± 0.0062
15,TTAGCTTGAG,1.01 ± 0.013
16,GATGGCGGGG,0.981 ± 0.03
17,GGGAATGTAT,0.979 ± 0.037
18,TGACAAAG,0.9776 ± 0.0029
19,TCGAGGGGGC,1.07 ± 0.17
20,GGAGGGGATC,0.998 ± 0.022
21,GTTTTTGTGT,0.987 ± 0.025
22,GGGTGACGGT,1.01 ± 0.04
23,TCGCTTGGCC,1.03 ± 0.04

row,Sequence,switch fluorescence ratio
1,TGGTTGTGGG,0.996 ± 0.028
2,TAAGATAGGA,0.982 ± 0.013
3,CATCTTGGAA,1.01 ± 0.015
4,GTGTTATCGC,1.011 ± 0.0015
5,CGACAATGCC,1.29 ± 0.03
6,TGAGTACAGC,1.03 ± 0.092
7,GATAGACCAG,1.01 ± 0.025
8,TGAGGGATGG,1.01 ± 0.017
9,GCACGGTCGG,1.009 ± 0.0021
10,AATGCTGGGG,1.05 ± 0.081
11,TGGTGGCGGT,1.01 ± 0.075
12,GGGAGGCGGG,0.99 ± 0.019
13,CAAGTACGGA,1.1 ± 0.17
14,AGGGCAAGGA,1.11 ± 0.16
15,GGTGTGCACC,1 ± 0.025
16,TATAAACTTT,1.01 ± 0.054
17,ACGGCAGAGG,1.09 ± 0.02
18,AGTGGGAGGA,0.996 ± 0.02
19,TTTTAAGGTA,0.996 ± 0.026
20,TTTTAGGTAG,0.99 ± 0.0029
21,GGACGCATAA,3.51 ± 1.3
22,TAGCTCGGGA,0.9742 ± 0.0097
23,AATAATAGGT,1.016 ± 0.007

row,Sequence,switch fluorescence ratio
1,TAGCCAGGGG,1.2 ± 0.076
2,ATTATTAAAT,1.08 ± 0.18
3,GGGACTTACC,1.08 ± 0.02
4,GCCAAAAGGG,1.015 ± 0.008
5,TTGAGGCCCG,0.9375 ± 0.0031
6,CGTTTCATGC,1.05 ± 0.056
7,ATCTCTGAAG,0.995 ± 0.013
8,GTTATTATGT,0.994 ± 0.077
9,GCATGGTGGC,1.013 ± 0.0028
10,ATGGAAGTTA,1.011 ± 0.0057
11,TTTGATGCGT,1.018 ± 0.0095
12,ATAGATCGCA,1.02 ± 0.018
13,TGGGGATTAG,1.01 ± 0.033
14,TTAATATTTG,1.01 ± 0.041
15,CTGGGGTTGC,0.96 ± 0.03
16,AATTTGTAAA,0.981 ± 0.04
17,CACGATATTC,1.18 ± 0.027
18,GTTCAAAAGC,0.98 ± 0.034
19,ATCGGGCTGC,1 ± 0.038
